# Measurements reported in patent publication US20080160035A1 (Regeneron, published 2008).
# T1: hIL-4R on cells (STAT6-transfected HEK293, TF1, TF1/A12) (human, UniProt P24394 26-825)
# T1 sequence (looked up): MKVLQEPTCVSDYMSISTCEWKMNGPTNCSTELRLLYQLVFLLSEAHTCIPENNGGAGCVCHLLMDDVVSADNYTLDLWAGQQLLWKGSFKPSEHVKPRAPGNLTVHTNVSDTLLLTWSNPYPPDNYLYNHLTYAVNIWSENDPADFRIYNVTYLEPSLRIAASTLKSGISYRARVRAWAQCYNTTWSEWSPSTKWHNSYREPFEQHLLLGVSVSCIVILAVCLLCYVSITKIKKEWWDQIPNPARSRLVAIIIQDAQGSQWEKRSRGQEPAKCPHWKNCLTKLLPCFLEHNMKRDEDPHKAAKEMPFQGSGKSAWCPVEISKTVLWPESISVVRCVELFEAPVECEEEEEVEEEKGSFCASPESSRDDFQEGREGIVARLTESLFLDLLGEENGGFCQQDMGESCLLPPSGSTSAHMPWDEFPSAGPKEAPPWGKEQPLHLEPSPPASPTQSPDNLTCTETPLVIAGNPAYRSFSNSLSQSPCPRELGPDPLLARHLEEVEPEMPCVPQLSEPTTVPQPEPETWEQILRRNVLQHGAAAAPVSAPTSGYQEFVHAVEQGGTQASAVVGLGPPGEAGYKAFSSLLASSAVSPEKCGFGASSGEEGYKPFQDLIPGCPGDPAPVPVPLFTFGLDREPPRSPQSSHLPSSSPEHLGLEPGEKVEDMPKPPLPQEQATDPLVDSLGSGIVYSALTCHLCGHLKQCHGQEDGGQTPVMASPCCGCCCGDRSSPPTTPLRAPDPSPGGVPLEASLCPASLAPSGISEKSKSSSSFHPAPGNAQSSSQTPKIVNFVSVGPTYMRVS
# T2: dimeric hIL-4R-hFc (human, UniProt P24394 26-232)
# T2 construct: also called hIL-4R-Fc; not shown: human Fc (hFc)
# T2 sequence: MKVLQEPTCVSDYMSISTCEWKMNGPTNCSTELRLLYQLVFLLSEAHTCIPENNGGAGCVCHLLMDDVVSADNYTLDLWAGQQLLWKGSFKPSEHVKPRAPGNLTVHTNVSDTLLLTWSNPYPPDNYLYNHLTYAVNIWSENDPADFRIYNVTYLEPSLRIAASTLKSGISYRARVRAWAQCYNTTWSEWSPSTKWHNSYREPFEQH
# T3: mouse IL-4R (mouse, UniProt P16382 26-233, limits assumed)
# T3 sequence (looked up): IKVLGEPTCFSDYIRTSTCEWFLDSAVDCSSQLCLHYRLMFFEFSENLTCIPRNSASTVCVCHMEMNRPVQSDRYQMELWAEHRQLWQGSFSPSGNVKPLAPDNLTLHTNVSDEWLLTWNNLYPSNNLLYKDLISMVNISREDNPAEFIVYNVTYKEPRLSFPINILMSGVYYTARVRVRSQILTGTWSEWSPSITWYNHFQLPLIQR
# T4: monomeric hIL-4R (R&D Systems) (human, UniProt P24394 26-231)
# T4 construct: Bought (R&D Systems); also called hIL-4R monomer
# T4 sequence: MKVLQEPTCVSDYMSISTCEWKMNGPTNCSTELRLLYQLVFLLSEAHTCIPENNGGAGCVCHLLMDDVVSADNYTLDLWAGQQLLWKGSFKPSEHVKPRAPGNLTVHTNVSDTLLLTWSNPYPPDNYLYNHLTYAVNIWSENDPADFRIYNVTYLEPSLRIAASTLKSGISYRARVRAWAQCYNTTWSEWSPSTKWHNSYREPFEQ
# Columns and labels:
# [1] = biological target: T1, hIL-4R on cells (STAT6-transfected …); assay: cell-based or functional assay
# dimeric hIL-4R-hFc [2] = biological target: T2, dimeric hIL-4R-hFc; assay: SPR; reduction of hIL-4 (50 nM) binding to captured hIL-4R-hFc after antibody; competitor hIL-4
# Excerpt: Purified hIL-4R-hFc molecules were captured by goat anti-human IgG polyclonal antibody immobilized on CM-5 to a density of 260 RU, to prepare a receptor-coated surface.
# mouse IL-4R = biological target: T3, mouse IL-4R; assay: binding affinity test of Example 2 (method not restated)
# [3] = biological target: T1, hIL-4R on cells (STAT6-transfected …); assay: cell-based or functional assay; remark: listed apart in the source
# [4] = biological target: T4, monomeric hIL-4R (R&D Systems); assay: SPR (BIAcore 2000); antibody captured, monomeric hIL-4R injected
# Description: (§1) Binding affinity (KD) of selected antibodies with respect to hIL-4R was determined using a real-time biosensor surface plasmon resonance assay (BIAcore™ 2000). Briefly, antibody was captured on a goat anti-mouse (GAM) IgG polyclonal antibody surface created through direct chemical coupling of the GAM IgG to a BIAcore™ chip to form a captured antibody surface. […] Binding of antigen to antibody and dissociation of the bound complex, were monitored in real time. Equilibrium dissociation constants (KD) and dissociation rate constants were ascertained by performing kinetic analysis using BIA evaluation software. BIA evaluation software was also used to calculate the half-life of antigen/antibody complex dissociation (T_{1/2}). […] The binding affinity of anti-hIL-4R antibodies to either mouse or monkey (Macaca fascicularis) IL-4R was also tested.
# dimeric hIL-4R-hFc [5] = biological target: T2, dimeric hIL-4R-hFc; assay: SPR (BIAcore 2000); antibody captured, dimeric hIL-4R-hFc injected
# Description: as §1
# dimeric hIL-4R-hFc [6] = biological target: T2, dimeric hIL-4R-hFc; assay: ELISA; antibody titrated against 25 pM hIL-4R-Fc, free receptor caught on hIL-4 plate
# Description: Concentration of free hIL-4R-Fc (no antibody bound) was determined using a hIL-4R-specific sandwich ELISA. […] After a one-hour incubation at room temperature, the detection plate was washed and plate-bound hIL-4R-hFc was detected using HRP conjugated goat anti-hFc polyclonal antibodies and developed using colorimetric substrates such as BD OptEIA™ (BD Biosciences Pharmingen, San Diego, Calif.). After the reaction was stopped with 1 M phosphoric or sulfuric acid, absorbances at 450 nm were recorded and the data were analyzed using GraphPad™ Prism software.
Binder,"STAT6 Bioassay IC50 (HEK293 STAT6 luciferase, 10 pM hIL-4) [1]","TF1 Bioassay IC50 (proliferation, 50 pM hIL-4) [1] [nM]",% Inhibition (BIAcore) (dimeric hIL-4R-hFc [2]) [%],binding result (mouse IL-4R),"STAT6 Bioassay IC50 (HEK293 STAT6 luciferase, 40 pM hIL-13) [3]","TF1 Bioassay IC50 (proliferation, 150 pM hIL-13) [3] [nM]",Kd [4] [pM],T1/2 monomeric [4] [h],Kd (dimeric hIL-4R-hFc [5]) [pM],T1/2 dimeric (dimeric hIL-4R-hFc [5]) [h],IC50 (dimeric hIL-4R-hFc [6]) [pM],"TF1/A12 Bioassay IC50 (proliferation, 20 pM hIL-4) [1] [nM]"
"VAK12B11-9 (antibody, V domains shown, Apparently tested with mouse constant region (anti-mouse IgG capture/detection)) VH: QVQLVESGGGVVQPGRSLRLSCAASGFTFSSYAMYWVRQAPGKGLEWVAVISYDGSNKYYTDSVKGRFTVSRDNSKNTLFLQMNSLRAEDTALYYCAKESSSYGLDVWGQGTTVTVSS VL: DIQMTQSPSTLSASVGDRVAITCRASQSISNWLAWYQQKPGKAPKLLISKASSLKSGVPSRFSGSGSGTEFTLTISSLQPDDFAAYYCQQYNSYSYTFGQGTKLEIK",0.49 nM,0.57,96,no binding,0.37 nM,1.6,410,2,36,12,99,–
"VAK8G11-13 (antibody, V domains shown, Apparently tested with mouse constant region (anti-mouse IgG capture/detection)) VH: QVRLVESGGGVVQPGGSLRLSCAASGFIFRSYGMHWVRQAPGRGLEWVAVISYDGSKTFYVDSVKVRFTISRDNSKNTLYLEMNSLRVDDTAVYFCVKEGRSGSWFDPWGQGTLVAVSS VL: DIHMTQSPSSLSASVGDRVTITCRASQAINNFLAWFQQKPGKTPKSLIFATSSLQSGVPSRFSGSGSGTDFTLTISSLQPEDFATYYCQQYNSHPWTFGQGTKVEIK",80 pM,0.16,95,no binding,60 pM,0.42,30,14,2,63,26,–
"VAK10G6-7 (antibody, V domains shown, Apparently tested with mouse constant region (anti-mouse IgG capture/detection)) VH: QVQLVESGGGVVQPGRSLRLSCTASGFTFSSFGMHWVRQAPGRGLEWVAVISYDGSKKYYADSVKVRFTISRDNSKNTLYLQMNSLRVDDTAVYFCAKEGRTGNWFDPWGQGTLVAVSS VL: DIQMTQSPSSLSASVGDRVTITCRASQAINNYLAWFQQKPGKTPKSLIFATSSLQSGVPSRFSGTGSGTDFTLTISSLQPEDFATYYCQQYNSHPWTFGQGTKVEIR",0.11 nM,0.23,95,no binding,70 pM,0.46,230,2.4,11,24,37,–
"VAK5H4-4 (antibody, V domains shown, Apparently tested with mouse constant region (anti-mouse IgG capture/detection)) VH: QVRLVESGGGVVQPGGSLRLSCVASGFTFRSYGMHWVRQAPGRGLEWVAVISYDGSKTFYVDSVKVRFTISRDNSKNTLYLEMNSLRVDDTAVYFCVKEGRSGSWFDPWGQGTLVAVSS VL: DIQMTQSPSSLSASVGDRVTITCRASQAINNFLAWFQQKPGKTPNSLIFATSSLQSGVPSRFSAGGSGTDFTLTISSLQPEDFATYYCQQYNSHPWTFGQGTKVEIK",0.132 nM,0.15,96,no binding,84 pM,0.24,20,16,4,30,33,0.182

# The remaining lines, values ahead:
"STAT6 Bioassay IC50 (HEK293 STAT6 luciferase, 10 pM hIL-4) [1]","TF1 Bioassay IC50 (proliferation, 50 pM hIL-4) [1] [nM]",% Inhibition (BIAcore) (dimeric hIL-4R-hFc [2]) [%],binding result (mouse IL-4R),"STAT6 Bioassay IC50 (HEK293 STAT6 luciferase, 40 pM hIL-13) [3]","TF1 Bioassay IC50 (proliferation, 150 pM hIL-13) [3] [nM]",Kd [4] [pM],T1/2 monomeric [4] [h],Kd (dimeric hIL-4R-hFc [5]) [pM],T1/2 dimeric (dimeric hIL-4R-hFc [5]) [h],IC50 (dimeric hIL-4R-hFc [6]) [pM],"TF1/A12 Bioassay IC50 (proliferation, 20 pM hIL-4) [1] [nM]",Binder
0.48 nM,0.31,96,no binding,0.3 nM,1,2050,0.467,68,7,67,–,"VAK9C6-11 (antibody, V domains shown, Apparently tested with mouse constant region (anti-mouse IgG capture/detection)) VH: QVQLVESGGGVVQPGRSLRLSCAASGFTFSSYGMHWVRQAPGKGLEWVTVISYDGSIKYYVDSVKGRFTISRDNSKNTLFLQMNSLRVEDTAVYYCAKEGRKYGMDVWGQGTTVTVSS VL: DIQMTQSPSTLSASVGDRVTITCRASQIISSLLVWYQQKPGKAPKLLIYKASSLESGVPSRFSGSGSGTEFTLTISSLQPDDFATYYCQQYHSYMYTFGQGTKLEIK"
0.2 nM,0.2,95,no binding,0.14 nM,0.44,50,8,6,21,35,–,"VAK11D4-1 (antibody, V domains shown, Apparently tested with mouse constant region (anti-mouse IgG capture/detection)) VH: QVRLVESGGGVVQPGRSLRLSCVASGFTFRSYGMHWVRQAPGRGLEWVAVISYDGSQTFYVDSVKVRFTISRDNSNNTLYLEMNSLRVDDTAVYFCVKEGRSGSWFDPWGQGTLVAVSS VL: DIHMTQSPSSLSASVGDRVTITCRASQAINNYLAWFQQKPGRTPKSLIFATSSLQSGVPSRFSGSGSGTDFTLTISSLQPEDFATYYCQQYNSHPWTFGQGTKVEIK"
60 pM,0.13,95,no binding,40 pM,0.36,60,8,9,25,27,–,"VAK7G8-5 (antibody, V domains shown, Apparently tested with mouse constant region (anti-mouse IgG capture/detection)) VH: QVRLVESGGGVVQPGGSLRLSCTASGFIFRSYGMHWVRQAPGRGLEWVAVISYDGSKTFYVDSVKVRFTISRDNSKNTLYLEMNSLRVDDTAVYFCVKEGRSGSWFDPWGQGTLVAVSS VL: DIHMTQSPSSLSASVGDRVTITCRASQAINNFLAWFQQKPGKTPKSLIFATSSLQSGVPSRFSGSGSGTDFTLTISSLQPEDFATYYCQQYNSHPWTFGQGTKVEIR"
